One experiment concerns gut microbiome. The experiment is described as follows: Gut microbiome by 16S next generation sequencing, infection and thermal injury model. The experiment is classed as in vivo, Balb/c mice. The method, then:
(§1) Mice were intraperitoneally (i.p.) challenged with 1×10^7 CFU of an intestinal isolate E. coli (EC) and 1000 ng of flagellin then treated i.p. with 500 pg rCST9 and/or 50 pg rCSTC followed by a 30% full-thickness thermal injury (30% TBSA). […] Additional groups of infected, rCST treated and/or thermally injured mice were euthanized at 24 and 48 h post-thermal injury to collect serum and harvest intestinal samples. Cytokines were quantified in the serum and analysis of the gut microbiome.
Gut samples were harvested at 24 and 48 h from the same 4 mouse groups euthanized to collect sera as described above. As we reported in a previous publication (8), briefly, approximately 3 mm^3 pieces of the intestine (close to the cecum) were sterilely harvested from each mouse. For gut microbiome analysis, DNA from intestinal samples was extracted from samples lysed in MagNA Pure DNA Tissue Lysis Buffer followed by automated extraction on a MagNA Pure 96 platform (Roche). The isolated DNA was amplified using a panel of five “universal” primer pairs (Ion Xpress Barcodes) that created overlapping 400 bp DNA fragments covering 95% of the bacterial 16S rDNA. Barcoded amplimers were mixed at equimolar ratios and then subjected to Ion Torrent NGS (Thermo Scientific). Average read length was >300 bases with sequence generated from both strands. Reads were filtered and binned according to Ion Xpress barcode with Ion Torrent Suite software (v 4.0.2). Sequencing reads were then further processed using Galaxy software where each barcode was trimmed to remove the primer sequence. The 16S sequences were compared to the SILVA database using bowtie 2 software to yield species or genera level matches to return the hit-rate. Where multiple calls to the same genera were made the number of hits were added accordingly. Hit rates were converted to percentage of total to give an overall ratio of the sequenced microbiome.

The test system of the next experiment is IL-8. The experiment is described as follows: IL-8 secretion from intestinal epithelial cells exposed to E. coli 083:H1 and/or flagellin. It is filed as cell-based. Particulars: after exposure to enteric E. coli 083:H1 and/or flagellin. From the text: It is known that intestinal leakage of intestinal bacteria and their product occurs following burn injury likely contributing to systemic infection and sepsis.

Another experiment has as its system EC 083:H1 and flagellin. The experiment is described as follows: Mouse model of infection and thermal injury, survival. The experiment is classed as in vivo, Balb/c mice. Particulars: i.p. 500 pg rCST9 and/or 50 pg rCSTC; 1000 ng flagellin + 1×10^7 CFU EC 083:H1 i.p.; 30% TBSA burn; observed 10 days. The method, then:
as §1
Female Balb/c mice (n=6 mice/group), weighing 19-21 grams (Jackson Laboratories), were housed in a facility approved by the Association for Assessment and Accreditation for Laboratory Animal Care (AAALAC). Mice were allowed to adjust to their environment for at least seven days prior to the study and given access to food and water throughout the entire study. All animal procedures were approved by University of Texas Medical Branch IACUC and performed humanely with minimal suffering. Briefly, mice were shaved dorsally the morning of experimentation as previously described (8). The mice were given an i.p. challenge of 1000 ng of flagellin and 1×10^7 CFU/mouse of EC 083:H1 and then treated with 500 pg of rCST9 and/or 50 pg of rCSTC. Immediately following treatment, mice were anesthetized with pentobarbital (Nembutal) and subjected to a 30% total body surface area (TBSA) burn injury. […]

Another experiment has as its system E. coli O157:H7 (ATCC). Put plainly: Viability and virulence of pathogenic bacterial strains. It is filed as cell-based. The conditions noted are these: 50 pg dose.
The subject of experiment [1] is Pseudomonas aeruginosa (isolate from burn patient wound). The description is as above. The experiment is classed as cell-based. The conditions noted are these: 50 pg dose.
The subject of experiment [2] is human monocyte-derived macrophage (MDM). The experiment is described as follows: Macrophage killing of pathogens. It is filed as cell-based. The conditions noted are these: same five pathogens.
Experiment [3] relates to Burkholderia thialandensis (ATCC). The experiment is described as follows: Viability and virulence of pathogenic bacterial strains. Particulars: 50 pg dose. It is filed as cell-based.
In experiment [4] the test system is Klebsellia pneumoniae (isolate from burn patient lung). The description is as above. The conditions noted are these: 50 pg dose. The experiment is classed as cell-based.
For experiment [5], the system named is Salmonella typhimurium (ATCC). The experiment is described as above. It is filed as cell-based. Particulars: 50 pg dose.
The mark [6] stands for this setting: individual treatment, 24 and 48 h post-burn.

B1: rCSTC: human recombinant cystatin C (CST3), cysteine proteinase inhibitor; purchased from R&D Systems (protein, UniProt P01034 27-146, looked up)
Cystatin-C: SSPGKPPRLVGGPMDASVEEEGVRRALDFAVGEYNKASNDMYHSRALQVVRARKQIVAGVNYFLDVELGRTTCTKTQPNLDNCPFHDQPHLKRKAFCSFQIYAVPWQGTMTLSKSTCQDA
Take B1: in the experiment on gut microbiome (24 h post-burn), the “Bacteroidales S24-7 in gut microbiome” value is “noticeable but moderate increase”. The “Lachnospiraceae family in gut microbiome” value in the experiment on gut microbiome (24 h post-burn) is reported as “proportionate decrease”. Besides, the gut microbiome profile entry in the experiment with gut microbiome (48 h post-burn) is “nearly equivalent to sham controls”; with gut microbiome (setting [6]), “preserved the gut microbiome that was equivalent to sham controls”. Besides, the “IL-8 secretion from intestinal epithelial cells” value in the experiment with IL-8 is reported as “decreased IL-8 secretion”.

B2: rCST9: human recombinant cystatin 9, cysteine proteinase inhibitor; purchased from American Research Products, Inc. (protein, UniProt Q5W186 29-159, looked up)
Cystatin-9: WCSEEEMGGNNKIVQDPMFLATVEFALNTFNVQSKEEHAYRLLRVLSSWREDSMDRKWRGKMVFSMNLQLRQTVCRKFEDDIDNCPFQESLELNNVRQGISFPQVHSCGCCMGCGVGTGAADKAIPRDKGK
In the case of B2, in the experiment on EC 083:H1 and flagellin, the survival result is listed as “did not improve survival”. The gut microbiome profile result in the experiment with gut microbiome (setting [6]) is reported as “preserved the gut microbiome that was equivalent to sham controls”. In addition, in the experiment on IL-8, the “IL-8 secretion from intestinal epithelial cells” value is reported as “decreased IL-8 secretion”. For the same molecule, the viability and virulence result is “retarded the viability and virulence” in the experiment on E. coli O157:H7 (ATCC); “retarded the viability and virulence” in [1]; “retarded the viability and virulence” in experiment [3]; “retarded the viability and virulence” in experiment [4]; “retarded the viability and virulence” in experiment [5]. Also, the “MDM killing of pathogens” value in experiment [2] was “induced human monocyte-derived macrophage (MDM) killing”.
